From patent publication US20140031769A1, “THERAPEUTIC AGENT FORMULATIONS FOR IMPLANTED DEVICES” (ForSight Vision4, Inc., priority 2010, published 2014)
Converted amounts (≈) assume the structure as drawn. Where two headings read alike, the source gives them in different places.

How the values were obtained:
[1] = Critical micelle concentration (CMC) of surfactant, surface tension with Wilhelmy plate; assay type: physicochemical
Source text: The CMC can be determined from a variety of techniques such as measurements of surface tension using a Wilhelmy plate. The CMC for a particular surfactant may be dependent on a variety of parameters such as the concentrations of other components in the formulation and the temperature.
Surface tension measurements may be performed with a Wilhemy plate to determine the CMC; i.e., polysorbate 20 concentration threshold for constant surface tension. Devices can then be filled with formulations containing polysorbate 20 concentrations that are 0, 1, 5 and 20 times the CMC. These devices can be subjected to drug release testing and stability assays as described in Example 2.

[2] = Solubility of therapeutic agent suspension in buffer; assay type: physicochemical; details: aqueous buffer; in the buffer at 37C
Source text: The therapeutic agent stored in the reservoir of the container comprises at least one of a solid comprising the therapeutic agent, a solution comprising the therapeutic agent, a suspension comprising the therapeutic agent, particles comprising the therapeutic agent adsorbed thereon, or particles reversibly bound to the therapeutic agent. For example, reservoir may comprise a suspension of a cortico-steroid such as triamcinolone acetonide to treat inflammation of the retina.

[3] = rabbit, cited from earlier work
[4] = human, cited from earlier work
[5] = RRI of 0.02 and reservoir volume of 25 uL; as described in U.S. Pub. No. 2010/0255061; cited from earlier work
[6] = monkey, cited from earlier work

Polysorbate 20
CMC (wt %) ([1]; CMC 1e−5 M): 0.001% wt % | CMC (wt %) ([1]; CMC 8e−5 M): 0.01% wt %

CC1(C)O[C@@H]2C[C@H]3[C@@H]4CCC5=CC(=O)C=C[C@]5(C)[C@@]4(F)[C@@H](O)C[C@]3(C)[C@]2(C(=O)CO)O1 [triamcinolone acetonide]
solubility [2]: ~19 µg/mL (≈ 43.7 µM)

Ranibizumab: antibody derivative (Fab fragment), VEGF inhibitor; active ingredient of Lucentis™
half-life in the vitreous ([3]; listed as Lucentis™): two to four | half-life in the vitreous ([3]; listed as ranibizumab): approximately 3 days | half-life in the vitreous ([4]; listed as Lucentis™): about nine | half-life in the vitreous ([4]; listed as ranibizumab): ~220 h | half-life in device 100 [5]: about 100 days | half-life in the vitreous ([6]; listed as Lucentis™): two to four | half-life in the vitreous ([6]; listed as ranibizumab): approximately 3 days
